Test results as given in patent US20230374130A1 (published 2023).

Target: human CD3 epsilon (CD3ε) (human, UniProt P07766 23-207)
Experiment: binding kinetics

human CD3 epsilon (CD3ε), sequence (P07766 23-207): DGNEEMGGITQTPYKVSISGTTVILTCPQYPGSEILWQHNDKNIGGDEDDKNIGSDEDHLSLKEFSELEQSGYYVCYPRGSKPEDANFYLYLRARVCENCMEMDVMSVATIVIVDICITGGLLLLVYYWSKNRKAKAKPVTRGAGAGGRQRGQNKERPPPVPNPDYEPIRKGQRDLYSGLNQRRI

B1: 160C9_T4h (bispecific antibody)
light: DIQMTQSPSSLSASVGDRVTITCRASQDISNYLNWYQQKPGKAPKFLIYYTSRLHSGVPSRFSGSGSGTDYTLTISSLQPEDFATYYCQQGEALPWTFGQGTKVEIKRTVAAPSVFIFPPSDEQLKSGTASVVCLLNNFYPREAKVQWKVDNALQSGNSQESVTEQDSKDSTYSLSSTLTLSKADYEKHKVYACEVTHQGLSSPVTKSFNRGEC
heavy 1: QVQLVQSGAEVKKPGASVKVSCKASGYKFTSYWIEWVRQAPGQGLEWIGEILPGSDTTNYNEKFKDRVTFTSDTSTSTVYMELSSLRSEDTAVYYCARDRGNYRAWFGYWGQGTLVTVSSASTKGPSVFPLAPSSKSTSGGTAALGCLVKDYFPEPVTVSWNSGALTSGVHTFPAVLQSSGLYSLSSVVTVPSSSLGTQTYICNVNHKPSNTKVDKKVEPKSCDKTHTCPPCPAPEAAGAPSVFLFPPKPKDTLMISRTPEVTCVVVDVSHEDPEVKFNWYVDGVEVHNAKTKPREEQYNSTYRVVSVLTVLHQDWLNGKEYKCKVSNKALPAPIEKTISKAKGQPREPQVYTLPPSRDELTKNQVSLSCAVKGFYPSDIAVEWESNGQPENNYKTTPPVLDSDGSFFLVSKLTVDKSRWQQGNVFSCSVMHEALHNHYTQKSLSLSPG
heavy 2: not shown
- Kd: 12 nM
